# ± gives the uncertainty stated by the source.
# Assay: amyloid nucleation score (Sup35N fusion, yeast selection) (log enrichment); library NNK2; higher = more nucleation; inactive = no reads after selection
# In short: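 After 24 hours of induction with 100 μM copper sulfate, psi-negative yeast expressing peptides of 20 random codons fused to Sup35N were grown for 7 days at 30°C on medium lacking adenine and uracil. Input and output plasmid inserts were sequenced with Illumina, and sequences with under 100 input reads were discarded. Scores for nucleation are the DiMSum log enrichment of output over input reads, centred on the mode score of non-aggregating sequences.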
row,Substance,amyloid nucleation score
1,ANAKIYGNMEALETGMRL,0.553 ± 0.57
2,DLAPLLR,0.132 ± 0.56
3,SNLFCLNTSLVQAVMMACPI,0.113 ± 1.1
4,EPVGYSMLGHVIKTVLVLAR,inactive
5,IFSTHVEFRWQLILGL,-0.426 ± 0.25
6,QYHCPS,-0.616 ± 0.5
7,GDDWSADVVI,-0.718 ± 0.55
8,VNSVMARMITCTSVVGCKYW,-0.259 ± 0.19
9,IFYRYFSVFNCPAICRQYRK,6.382 ± 0.054
10,IGLTALDFMSAFGVHLYGCG,0.215 ± 0.76
11,SFVIIVLDDLCSCAN,1.62 ± 0.13
12,GARMSRSSGFSVQYNFSGQG,4.11 ± 0.093
13,IPDHFRTSSAYRLGDRHGG,0.103 ± 0.43
14,FWSGVTFSVLSYMSVSNMVP,-0.979 ± 0.55
15,LLSECWLESGPSGASTC,1.5 ± 0.5
16,GLNYPAIWEARLKG,0.703 ± 0.29
17,SSCIWLVFKCSWFGF,4.421 ± 0.029
18,RIWSFNGQTFVSNLSVSSVS,-0.773 ± 0.76
19,HRVWTVIMWGS,0.699 ± 0.44
20,LYDYYQICINGGRVFSDFPC,-0.474 ± 0.79
21,ILINCSRWEGRTSCVTLAQQ,2.27 ± 0.12
22,QRLYFMIMSQPAFGTFRGIY,-0.95 ± 1.1
23,PDVMLCIFYIDFMQGFFDLY,5.08 ± 0.07
24,GDAIANCIVVWYGHAMPARY,2.06 ± 0.12

row,Substance,amyloid nucleation score
1,MDPSICSDSLRFGLYWISRR,3.93 ± 0.12
2,VEGTIRKRFGVWKYVLAPWL,-0.267 ± 0.38
3,MSCSSIRLFQDSIRLCRTSR,-0.02 ± 0.32
4,QCQRLSWRCMWCGMSLYQYD,3.98 ± 0.048
5,HLVGEKSSKRDSGGRGPRRY,-0.32 ± 0.61
6,RRYDAVR,1.3 ± 0.22
7,AGCVVNHTPRLLGRSTKRLK,3.1 ± 0.062
8,ASQAHSEIMLVVTMNALHQP,7.57 ± 0.076
9,WNTAYGRVLASL,2.32 ± 0.092
10,FDTVGYSACCCWP,4.78 ± 0.11
11,YPDIYGFEKRIDSPSNLGML,0.433 ± 0.6
12,MHCIFSNLV,inactive
13,VVGPFHFIVMMKVSKVRVKL,6.212 ± 0.039
14,SISVLYNLRLLCIYNIVVYR,inactive
15,GIWNLQYRREV,0.596 ± 0.32
16,WPFRESVY,0.41 ± 0.5
17,IIRYTSILWKINGSGVNFWF,-0.67 ± 0.55
18,MFIWPCYFHNIRVGQLFGFG,0.091 ± 0.63
19,IANVWLLQFRKAFEGGLDAG,7.08 ± 0.079
20,GSGNT,0.444 ± 0.56
21,LMILRRVVKEPESANKFCGY,inactive
22,RMSIFPGH,-1.04 ± 1.1
23,TYSSNASGVTVFR,-0.772 ± 0.63
24,MSTLRRLRSRNRRFVNFVWG,-0.019 ± 0.33

row,Substance,amyloid nucleation score
1,YIVRNLVLLI,5.577 ± 0.036
2,NVDQEMDYDYERIGFLPIGT,-0.204 ± 0.33
3,ELQRKNTGLKVDLKAHIHRF,5.37 ± 0.063
4,VYMKFMGMMQHFIKLKSRDL,inactive
5,VFKLCTSPFSCLIGRMGGTD,9.172 ± 0.063
6,SGIVG,0.791 ± 0.57
7,FRVMSRVWTTEESAFLKLLC,-0.94 ± 0.63
8,RGPTAHTFSARENP,-0.312 ± 0.45
9,SMYLKKGRSVRGGMG,-0.66 ± 0.44
10,NVKNKKSVSLPYSKLMRGRE,-0.17 ± 0.65
11,KWNRWYVALCLVSV,10.08 ± 0.03
12,FYLSFRVECLGRR,4.782 ± 0.045
13,RSYDQVRSCHARMREDSNVQ,4.61 ± 0.066
14,YIRLATYSLYALDWAVRKNR,-0.548 ± 1.1
15,TMYYVTGGV,2.44 ± 0.056
16,FMGRMLVIHL,0.277 ± 0.41
17,LYNRRPFPYGYGTGLCPQRI,-0.047 ± 0.79
18,NNFATLSKL,inactive
19,VKWTVHYNAVAKRIRLMIVY,0.437 ± 0.8
20,PLYLYA,4.28 ± 0.078
21,LWAGDLFDRGP,0.709 ± 0.66
22,SIFMDRCDWPSCSFGRIHEV,-0.521 ± 0.35
23,CHACLWRETRVRTCVSAEHH,1.65 ± 0.35
